{"source": "patent US7396905B1", "about": "“Calcipressins: endogenous inhibitors of calcineurin, uses and reagents related thereto” (priority 1999, dated 2008)", "molecules": {"B1": {"name": "Csp1 1-100: Csp1 lacking the C-terminal half (protein)", "chain": "MEEVDLQDLPSATIACHLDPRVFVDGLCRAKFESLFRTYDKDTTFQYFKSFKRVRINFSNPLSAADARLRLHKTEFLGKEMKLYFAQTLHIGSSHLAPPN", "modifications": "left off: a dimerising Fc or GST", "notes": "Csp1 lacking the C-terminal half"}}, "key": {"[1]": {"tested_on": "calcineurin A and B subunits produced by in vitro translation", "test": "In vitro binding of GST fusion proteins to 35S-labelled calcineurin subunits", "conditions": "GST fusion proteins purified from E. coli", "procedure": "5A. […] Associated calcineurin subunits were detected and quantified by SDS-polyacrylamide gel electrophoresis and autoradiography. The same deletion mutants were co-expressed with GFP-NF-AT4 in BHK cells and assayed for their ability to block calcium ionophore-stimulated NF-AT4 nuclear import.\nPurified GsT-Csp1 and -Csp2 fusion proteins were mixed with calcineurin in vitro translation lysates in buffer A (50 mM Tris-HCl, pH7.5, 140 mM NaCl, 1 mM CaCl2, and 0.4% Triton X-100), incubated for 60 minutes at 4 degrees, and absorbed with glutathione-agarose beads. The agarose beads were washed three times with buffer A, resuspended in 2×SDS sample buffer, and fractionated on SDS-polyacrylamide gels. Dried gels were analyzed by the phosphoImager to detect and quantify GsT-Csp1 or -Csp2-associated calcineurin subunits."}, "[2]": {"tested_on": "calcineurin-dependent nuclear import of NF-AT4", "test": "Calcineurin-dependent NF-AT4 nuclear import assay in BHK cells", "type": "cell-based, baby hamster", "conditions": "co-expressed with GFP-NF-AT4 in BHK cells; calcium ionophore", "procedure": "This assay monitors the subcellular location of GFP-tagged NF-AT4, a transcription factor that resides in the cytoplasm of unstimulated BHK cells. Following stimulation of BHK cells with ionomycin, a calcium ionophore, GFP-NF-AT4 translocates to the nucleus with a t1/2 of five minutes. This translocation event is accompanied by a dephosphorylation of NF-AT4 in a process dependent on calcineurin.\nBaby hamster kidney cells were grown on sterile glass coverslips in DMEM media with 10% fetal calf serum and transfected using calcium phosphate methods (Heald et al., 1993). […] NF-AT4 expression was based on the vector pcDNA3-GFP-NF-AT4 (Shibasaki et al., 1996). Transfected cells were grown for 18 hours prior to drug treatments. Cells were fixed 30 minutes after ionomycin (0.5 uM) treatment or washout using 3% formaldehyde in PBS for 10 minutes at room temperature."}}, "data": [{"molecule": "B1", "values": [{"measurement": "interaction with calcineurin in vitro", "setting": "[1]", "value": "no obvious interaction with calcineurin in vitro"}, {"measurement": "inhibition of NF-AT4 nuclear import stimulated by calcium ionophore", "setting": "[2]", "value": "fails to block calcium-activation NF-AT4 nuclear import"}]}]}
